From the MegaScale stability set (Tsuboyama et al. 2023)

B1: 2K2A (parent)
chain: ELREAFRLYDKEGNGYISTDVMREILAELDETLSSEDLDAMIDEIDADGSGTVDFEEFMGVMT

Variants of: B1
Assay: folding stability dG (cDNA display proteolysis); higher = more stable
Conditions: PBS, room temperature

| Variant | folding stability dG [kcal/mol] |
| --- | --- |
| L38S | -0.47 |
| L38M | 1.26 |
| L38G | -0.721 |
| L38V | 1.52 |
| E1G | 2.03 |
| E1P | 1.84 |
| E1H | 2.1 |
| E1M | 2.02 |
| E1L | 2.19 |
| E1A | 2.29 |
| E1T | 2.21 |
| E1W | 2.65 |
| E1K | 2.27 |
| S34Y | 0.751 |
| S34Q | 1.18 |
| S34A | 1.26 |
| D10E | 0.386 |
| D10T | 0.563 |
| D10N | -0.227 |
| D10V | 0.886 |
| D10W | 1.4 |
| T63H | 1.76 |
| T63C | 2.18 |
| T63F | 1.56 |

| Variant | folding stability dG [kcal/mol] |
| --- | --- |
| T63N | 1.82 |
| T63G | 1.85 |
| T63R | 1.94 |
| T63W | 1.33 |
| T63Y | 1.58 |
| F55A | 0.686 |
| F55Y | 1.88 |
| F55H | 0.24 |
| F55M | 1.31 |
| F55D | -0.867 |
| F55N | -0.55 |
| S50I | 1.14 |
| S50C | 1.39 |
| S50N | 1.67 |
| S50R | 1.61 |
| S50Y | 1.05 |
| S50D | 1.33 |
| E24K | 2.6 |
| E24S | 2.3 |
| E24V | 2.23 |
| E24Q | 2.48 |
| E24H | 2.14 |
| G60P | 0.712 |
| G60Y | 2.57 |

| Variant | folding stability dG [kcal/mol] |
| --- | --- |
| G60L | 2.46 |
| G60K | 2.69 |
| G60I | 2.39 |
| G60F | 2.49 |
| G60D | 1.75 |
| G15E | 0.488 |
| G15F | 0.687 |
| G15H | 0.458 |
| G15D | 0.537 |
| G15L | 0.841 |
| G15K | 0.271 |
| G15T | 0.259 |
| K11E | 1.36 |
| K11W | 1.88 |
| K11H | 1.69 |
| K11G | 1.03 |
| K11F | 1.82 |
| D54L | 1.43 |
| D54S | 2.43 |
| D54E | 1.33 |
| D54Q | 1.63 |
| D54R | 1.73 |
| D30N | 2.1 |
| D30Q | 1.38 |

| Variant | folding stability dG [kcal/mol] |
| --- | --- |
| D30W | 2.22 |
| D30R | 1.72 |
| D30S | 1.4 |
| D30K | 1.45 |
| E28N | 2.22 |
| E28Q | 2.24 |
| E28H | 2.2 |
| L33R | 1.36 |
| L33F | 1.34 |
| L33Q | 0.501 |
| L33K | 0.956 |
| L33I | 1.36 |
| R23V | -0.067 |
| R23M | 0.457 |
| R23L | 0.522 |
| R23S | -0.561 |
| R23K | 1.69 |
| A27Y | 1.75 |
| A27Q | 1.93 |
| A27D | 0.222 |
| A27I | 1.87 |
| A27L | 2.06 |
| A27F | 1.73 |
| A27R | 2.25 |

| Variant | folding stability dG [kcal/mol] |
| --- | --- |
| A27E | 1.12 |
| L29Y | 1.92 |
| L29N | 1.34 |
| L29W | 2.15 |
| L29V | 1.28 |
| L29A | 1.52 |
| L29T | 1.15 |
| L29I | 1.64 |
| L29H | 1.73 |
| Y16M | 0.8 |
| Y16N | 0.623 |
| Y16F | 1.89 |
| Y16V | 1.1 |
| Y16G | -0.095 |
| Y16K | 1.19 |
| V61L | 2.06 |
| V61D | -0.74 |
| V61H | 1.67 |
| V61W | 3.03 |
| V61K | 1.32 |
| V61G | 1.49 |
| R7S | 1.97 |
| R7E | 1.8 |
| R7F | 1.61 |

| Variant | folding stability dG [kcal/mol] |
| --- | --- |
| R7G | 1.64 |
| R7I | 1.93 |
| R7C | 2.22 |
| R7K | 2.12 |
| R7V | 1.62 |
| L8T | 1.94 |
| L8I | 1.8 |
| L8M | 2.05 |
| L8Q | 2.05 |
| L8A | 2.18 |
| L8N | 1.85 |
| N14G | 0.728 |
| N14Q | 1.53 |
| N14S | 1.5 |
| N14I | 1.73 |
| N14T | 1.74 |
| D39Q | 1.57 |
| D39F | 1.15 |
| D39Y | 1.06 |
| D39A | 1.48 |
| D39S | 1.39 |
| D39P | -0.067 |
| D39E | 1.4 |
| D39C | 1.16 |

| Variant | folding stability dG [kcal/mol] |
| --- | --- |
| D39K | 1.48 |
| M22C | 0.958 |
| M22D | -0.77 |
| E36A | 1.96 |
| E36I | 1.53 |
| E36W | 1.87 |
| E36Q | 1.82 |
| E36D | 1.89 |
| E36T | 1.82 |
| E36H | 1.65 |
| T32Y | 1.54 |
| T32D | 1.42 |
| T32M | 1.52 |
| T32K | 1.79 |
| T32S | 1.99 |
| I25F | 1.53 |
| I25R | 0 |
| I25H | -0.033 |
| I25Q | -0.758 |
| I25Y | 0.879 |
| I25L | 1.82 |
| E12W | 1.48 |
| E12V | 1.19 |
| E12G | 1.16 |

| Variant | folding stability dG [kcal/mol] |
| --- | --- |
| E12F | 1.45 |
| E12D | 1.85 |
| E12M | 1.53 |
| G51M | 1.15 |
| G51D | 0.686 |
| G51L | 0.92 |
| G51K | 1.27 |
| M41S | 0.166 |
| M41P | -0.862 |
| M41V | 1.21 |
| M41Q | 0.887 |
| M41A | 1.27 |
| M41L | 2.03 |
| M41K | 1.49 |
| F58V | 0.336 |
| F58T | -0.411 |
| F58L | 0.779 |
| D48C | 1.4 |
| D48R | 1.52 |
| D48Q | 1.31 |
| D48V | 1.18 |
| D48N | 1.84 |
| D48K | 1.57 |
| A47R | 2.06 |

| Variant | folding stability dG [kcal/mol] |
| --- | --- |
| A47E | 1.4 |
| A47S | 1.8 |
| A47F | 1.69 |
| A47V | 1.91 |
| E44I | 2.07 |
| E44T | 1.93 |
| Y9E | 0.654 |
| Y9T | 0.17 |
| Y9R | 1.32 |
| Y9S | 0.532 |
| Y9D | 0.261 |
| Y9C | 1.94 |
| Y9I | 1.31 |
| G13Y | 0.607 |
| G13D | 1.41 |
| G13W | 0.579 |
| G13A | 1.05 |
| G13V | 0.792 |
| G13N | 1.74 |
| I45M | 1.93 |
| I45L | 1.74 |
| I45S | 0.36 |
| D37F | 1.22 |
| D37E | 2.08 |

| Variant | folding stability dG [kcal/mol] |
| --- | --- |
| D37G | 1.15 |
| D37W | 1.56 |
| D37C | 2 |
| D37P | -0.169 |
| D37Q | 2.1 |
| V53G | -0.308 |
| V53W | 0.916 |
| V53P | -0.828 |
| V53T | -0.067 |
| V53A | 0.162 |
| A40I | 1.77 |
| A40M | 1.76 |
| A40H | 2.19 |
| A5R | 2.66 |
| A5T | 2.14 |
| A5K | 2.72 |
| A5G | 1 |
| A5H | 1.76 |
| A5D | 1.18 |
| A5E | 1.21 |
| T52R | 1.87 |
| T52W | 1.31 |
| T52I | 1.64 |
| E31S | 2.28 |

| Variant | folding stability dG [kcal/mol] |
| --- | --- |
| E31P | 2.61 |
| E31H | 2.26 |
| E31L | 2 |
| E31M | 2.02 |
| E31R | 2.41 |
| E31D | 1.97 |
| E4T | 1.23 |
| E4H | 1.36 |
| E4W | 1.41 |
| E4L | 1.53 |
| E57N | 2 |
| E57I | 1.97 |
| M59P | -0.961 |
| M59H | 1.2 |
| M59Q | 1.65 |
| M59W | 1.4 |
| M59R | 1.96 |
| M59E | 1.41 |
| M59C | 1.7 |
| M59K | 1.81 |
| M59D | 0.144 |
| M59V | 2.18 |
| M59Y | 2.02 |
| S18T | 2.02 |

| Variant | folding stability dG [kcal/mol] |
| --- | --- |
| S18K | 1.24 |
| S18Y | 1.32 |
| L2V | 1.14 |
| L2F | 1.88 |
| L2S | 0.529 |
| L2R | 0.34 |
| L2M | 1.74 |
| L2P | 0.726 |
| S35D | 1.92 |
| S35H | 1.82 |
| S35W | 1.48 |
| G49R | 1.95 |
| G49Q | 1.77 |
| T19W | 1.4 |
| T19Q | 0.688 |
| T19L | 2.27 |
| D20S | 2.26 |
| D20R | 2.23 |
| D20Q | 2.33 |
| D20V | 2.14 |
| D20M | 2.25 |
| D20A | 2.28 |
| V21Y | 1.61 |
| V21C | 2 |

| Variant | folding stability dG [kcal/mol] |
| --- | --- |
| V21M | 2.06 |
| V21G | 0.967 |
| I17V | 1.22 |
| I17S | -0.963 |
| I17T | -0.998 |
| I17M | 0.435 |
| R3G | 1.48 |
| R3N | 1.34 |
| R3Q | 1.71 |
| R3F | 2.11 |
| R3S | 1.42 |
| F6H | 0.31 |
| D43W | 2.16 |
| D43H | 2.16 |
| D43F | 2.13 |
| D43Q | 2.17 |
| D43P | 0.558 |
| D43C | 2.1 |
| D43K | 2.26 |
| D43R | 2.35 |
| D43T | 1.89 |
| D46E | 0.581 |
| D46K | 0.845 |
| D46Q | 0.665 |

| Variant | folding stability dG [kcal/mol] |
| --- | --- |
| D46N | 1.46 |
| D46L | 0.716 |
| D46Y | 0.647 |
| E56C | 1.92 |
| E56H | 1.88 |
| E56L | 1.88 |
| E56I | 1.87 |
| E56F | 2.04 |
| I42S | -0.099 |
| I42Q | -0.244 |
| I42E | -0.498 |
| I42G | -0.688 |
| I42Y | -0.094 |
| I42W | 0.22 |
| I42P | -0.739 |
| M62T | 0.559 |
| M62A | 0.857 |
| M62Y | 1.58 |
| M62I | 1.48 |
| M62S | 0.277 |
| M62D | 0.171 |
| M62P | 0.128 |
